Blank lines part the entries; values can stand above or below the binder they belong to. Numbered stars: 1 amine (or outer) side, 2 acyl side, 3 side chain; on linkers, the order of the positions; unused ones are H or OH. Square brackets hold non-standard residues; d marks the D form. Side chains are listed from the residue outwards. Ends that are not written are not given here. * marks the point of attachment. C18 diacid = O=C(O)CCCCCCCCCCCCCCCCC(=O)*; pY = N[C@@H](Cc1ccc(OP(=O)(O)O)cc1)C(=O)O; γGlu = O=C(O)[C@H](CCC(=O)[*:2])N[*:1]; AEEA = NCCOCCOCC(=O)O
Target: glucagon receptor (UniProt P47871 26-477, limits assumed)
Test: cell-based or functional assay

Sequence of glucagon receptor (P47871 26-477 limits assumed): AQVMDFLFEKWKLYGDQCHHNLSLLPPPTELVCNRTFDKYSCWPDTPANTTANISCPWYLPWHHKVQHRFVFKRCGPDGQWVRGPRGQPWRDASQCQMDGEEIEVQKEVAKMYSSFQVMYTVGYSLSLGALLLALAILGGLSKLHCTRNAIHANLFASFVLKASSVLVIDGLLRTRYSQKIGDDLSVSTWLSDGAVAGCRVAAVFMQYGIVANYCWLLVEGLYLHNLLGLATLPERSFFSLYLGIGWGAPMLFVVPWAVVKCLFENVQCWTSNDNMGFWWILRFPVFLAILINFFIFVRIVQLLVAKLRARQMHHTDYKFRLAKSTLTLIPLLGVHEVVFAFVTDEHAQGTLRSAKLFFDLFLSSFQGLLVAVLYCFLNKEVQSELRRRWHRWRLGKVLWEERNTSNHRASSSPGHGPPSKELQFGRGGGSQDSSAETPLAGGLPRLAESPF

Assay (I) Glucagon [EC50]: 0.003 nM
B1: N^ε29 … (peptide)
peptide: HSQGTFTSDYSKYLDSKRAQEFVQWLLNK([AEEA-AEEA-γGlu-C18 diacid])-NH2
modifications: N-terminus assumed
SMILES: CC(C)C[C@H](NC(=O)[C@H](CC(C)C)NC(=O)[C@H](Cc1c[nH]c2ccccc12)NC(=O)[C@H](CCC(N)=O)NC(=O)[C@@H](NC(=O)[C@H](Cc1ccccc1)NC(=O)[C@H](CCC(=O)O)NC(=O)[C@H](CCC(N)=O)NC(=O)[C@H](C)NC(=O)[C@H](CCCNC(=N)N)NC(=O)[C@H](CCCCN)NC(=O)[C@H](CO)NC(=O)[C@H](CC(=O)O)NC(=O)[C@H](CC(C)C)NC(=O)[C@H](Cc1ccc(O)cc1)NC(=O)[C@H](CCCCN)NC(=O)[C@H](CO)NC(=O)[C@H](Cc1ccc(O)cc1)NC(=O)[C@H](CC(=O)O)NC(=O)[C@H](CO)NC(=O)[C@@H](NC(=O)[C@H](Cc1ccccc1)NC(=O)[C@@H](NC(=O)CNC(=O)[C@H](CCC(N)=O)NC(=O)[C@H](CO)NC(=O)[C@@H](N)Cc1c[nH]cn1)[C@@H](C)O)[C@@H](C)O)C(C)C)C(=O)N[C@@H](CC(N)=O)C(=O)N[C@@H](CCCCNC(=O)COCCOCCNC(=O)COCCOCCNC(=O)CC[C@H](NC(=O)CCCCCCCCCCCCCCCCC(=O)O)C(=O)O)C(N)=O

Assay (I) Glucagon [EC50]: 0.003 nM
B2: N^ε24-([2-[2-[2-[[2-[2-[2-[[(4S)-5-hydroxy-4-[(18-hydroxy-18-oxooctadecanoyl)amino]-5-oxopentanoyl]amino]ethoxy]ethoxy]acetyl]amino]ethoxy]ethoxy]acetyl])[Lys^1 … (peptide)
peptide: HSQGTFTSDYSKYLDSKRAQEFVK([AEEA-AEEA-γGlu-C18 diacid])WLLET-NH2
modifications: N-terminus assumed
SMILES: CC(C)C[C@H](NC(=O)[C@H](Cc1ccc(O)cc1)NC(=O)[C@H](CCCCN)NC(=O)[C@H](CO)NC(=O)[C@H](Cc1ccc(O)cc1)NC(=O)[C@H](CC(=O)O)NC(=O)[C@H](CO)NC(=O)[C@@H](NC(=O)[C@H](Cc1ccccc1)NC(=O)[C@@H](NC(=O)CNC(=O)[C@H](CCC(N)=O)NC(=O)[C@H](CO)NC(=O)[C@@H](N)Cc1c[nH]cn1)[C@@H](C)O)[C@@H](C)O)C(=O)N[C@@H](CC(=O)O)C(=O)N[C@@H](CO)C(=O)N[C@@H](CCCCN)C(=O)N[C@@H](CCCNC(=N)N)C(=O)N[C@@H](C)C(=O)N[C@@H](CCC(N)=O)C(=O)N[C@@H](CCC(=O)O)C(=O)N[C@@H](Cc1ccccc1)C(=O)N[C@H](C(=O)N[C@@H](CCCCNC(=O)COCCOCCNC(=O)COCCOCCNC(=O)CC[C@H](NC(=O)CCCCCCCCCCCCCCCCC(=O)O)C(=O)O)C(=O)N[C@@H](Cc1c[nH]c2ccccc12)C(=O)N[C@@H](CC(C)C)C(=O)N[C@@H](CC(C)C)C(=O)N[C@@H](CCC(=O)O)C(=O)N[C@H](C(N)=O)[C@@H](C)O)C(C)C

Assay (I) Glucagon [EC50]: 0.022 nM
B3: N^ε24-([2-[2-[2-[[(4S)-5-hydroxy-4-[(18-hydroxy-18-oxooctadecanoyl)amino]5-oxopentanoyl]amino]ethoxy]ethoxy]acetyl]amino]ethoxy]ethoxy]acetyl]])[Lys^17,Glu^21,L … (peptide)
peptide: HSQGTFTSDYSKYLDSKRAQEFVK([AEEA-AEEA-γGlu-C18 diacid])WLLNT

Assay (I) Glucagon [EC50]: 0.017 nM
B4: N^α- ([Lys^17, Glu^21, Leu^27]Glucagonyl) … (peptide)
peptide: HSQGTFTSDYSKYLDSKRAQEFVQWLLNTK([AEEA-AEEA-γGlu-C18 diacid])-NH2
modifications: N-terminus assumed
SMILES: CC(C)C[C@H](NC(=O)[C@H](Cc1ccc(O)cc1)NC(=O)[C@H](CCCCN)NC(=O)[C@H](CO)NC(=O)[C@H](Cc1ccc(O)cc1)NC(=O)[C@H](CC(=O)O)NC(=O)[C@H](CO)NC(=O)[C@@H](NC(=O)[C@H](Cc1ccccc1)NC(=O)[C@@H](NC(=O)CNC(=O)[C@H](CCC(N)=O)NC(=O)[C@H](CO)NC(=O)[C@@H](N)Cc1c[nH]cn1)[C@@H](C)O)[C@@H](C)O)C(=O)N[C@@H](CC(=O)O)C(=O)N[C@@H](CO)C(=O)N[C@@H](CCCCN)C(=O)N[C@@H](CCCNC(=N)N)C(=O)N[C@@H](C)C(=O)N[C@@H](CCC(N)=O)C(=O)N[C@@H](CCC(=O)O)C(=O)N[C@@H](Cc1ccccc1)C(=O)N[C@H](C(=O)N[C@@H](CCC(N)=O)C(=O)N[C@@H](Cc1c[nH]c2ccccc12)C(=O)N[C@@H](CC(C)C)C(=O)N[C@@H](CC(C)C)C(=O)N[C@@H](CC(N)=O)C(=O)N[C@H](C(=O)N[C@@H](CCCCNC(=O)COCCOCCNC(=O)COCCOCCNC(=O)CC[C@H](NC(=O)CCCCCCCCCCCCCCCCC(=O)O)C(=O)O)C(N)=O)[C@@H](C)O)C(C)C

Assay (I) Glucagon [EC50]: 0.012 nM
B8: N^ε25 … (peptide)
peptide: HSQGTFTSDYSKYLDSKRAQEFVQK([AEEA-AEEA-γGlu-C18 diacid])LLNT-NH2
modifications: N-terminus assumed
SMILES: CC(C)C[C@H](NC(=O)[C@H](Cc1ccc(O)cc1)NC(=O)[C@H](CCCCN)NC(=O)[C@H](CO)NC(=O)[C@H](Cc1ccc(O)cc1)NC(=O)[C@H](CC(=O)O)NC(=O)[C@H](CO)NC(=O)[C@@H](NC(=O)[C@H](Cc1ccccc1)NC(=O)[C@@H](NC(=O)CNC(=O)[C@H](CCC(N)=O)NC(=O)[C@H](CO)NC(=O)[C@@H](N)Cc1c[nH]cn1)[C@@H](C)O)[C@@H](C)O)C(=O)N[C@@H](CC(=O)O)C(=O)N[C@@H](CO)C(=O)N[C@@H](CCCCN)C(=O)N[C@@H](CCCNC(=N)N)C(=O)N[C@@H](C)C(=O)N[C@@H](CCC(N)=O)C(=O)N[C@@H](CCC(=O)O)C(=O)N[C@@H](Cc1ccccc1)C(=O)N[C@H](C(=O)N[C@@H](CCC(N)=O)C(=O)N[C@@H](CCCCNC(=O)COCCOCCNC(=O)COCCOCCNC(=O)CC[C@H](NC(=O)CCCCCCCCCCCCCCCCC(=O)O)C(=O)O)C(=O)N[C@@H](CC(C)C)C(=O)N[C@@H](CC(C)C)C(=O)N[C@@H](CC(N)=O)C(=O)N[C@H](C(N)=O)[C@@H](C)O)C(C)C

Assay (I) Glucagon [EC50]: 0.02 nM
B11: N^ε16-([2-[2-[2-[[(4S)-5-hydroxy-4-[(18-hydroxy-18-oxooctadecanoyl)amino]5-oxopentanoyl]amino]ethoxy]ethoxy]acetyl]amino]ethoxy]ethoxy]acetyl]])[Lys^16,Lys^17,G … (peptide)
peptide: HSQGTFTSDYSKYLDK([AEEA-AEEA-γGlu-C18 diacid])KRAQEFVQWLLNT

Assay (I) Glucagon [EC50]: 0.009 nM
B14: N^ε24-([2-[2-[2-[[2-[2-[2-[[(4S)-5-hydroxy-4-[(18-hydroxy-18-oxooctadecanoyl)amino]-5-oxopentanoyl]amino]ethoxy]ethoxy]acetyl]amino]ethoxy]ethoxy]acetyl]) … (peptide)
peptide: HSQGTFTSDYSKYLDSKKAQEFVK([AEEA-AEEA-γGlu-C18 diacid])WLLST

Continued, binder first:

B5: N^ε24-([2-[2-[2-[[2-[2-[2-[[(4S)-5-hydroxy-4-[(18-hydroxy-18-oxooctadecanoyl)amino]-5-oxopentanoyl]amino]ethoxy]ethoxy]acetyl]amino]ethoxy]ethoxy]acetyl]) … (peptide)
peptide: HSQGTFTSDYSKYLDSRRAQDFVK([AEEA-AEEA-γGlu-C18 diacid])HLLNT
Assay (I) Glucagon [EC50]: 0.194 nM

B6: N^ε24-([2-[2-[2-[[2-[2-[2-[[(4S)-5-hydroxy-4-[(18-hydroxy-18-oxooctadecanoyl)amino]-5-oxopentanoyl]amino]ethoxy]ethoxy]acetyl]amino]ethoxy]ethoxy]acetyl]) … (peptide)
peptide: HSQGTFTSDYSKYLDSRRAQEFVK([AEEA-AEEA-γGlu-C18 diacid])RLLNT
Assay (I) Glucagon [EC50]: 0.074 nM

B7: N^ε24-([2-[2-[2-[[2-[2-[2-[[(4S)-5-hydroxy-4-[(18-hydroxy-18-oxooctadecanoyl)amino]-5-oxopentanoyl]amino]ethoxy]ethoxy]acetyl]amino]ethoxy]ethoxy]acetyl]) … (peptide)
peptide: HSQGTFTSDYSKYLDSRRAQDFVK([AEEA-AEEA-γGlu-C18 diacid])[pY]LLNT
Assay (I) Glucagon [EC50]: 0.171 nM

B9: N^ε24-([2-[2-[2-[[2-[2-[2-[[(4S)-5-hydroxy-4-[(18-hydroxy-18-oxooctadecanoyl)amino]-5-oxopentanoyl]amino]ethoxy]ethoxy]acetyl]amino]ethoxy]ethoxy]acetyl]) … (peptide)
peptide: HSQGTFTSDYSKYLDSKRAQEFVK([AEEA-AEEA-γGlu-C18 diacid])WLLST-NH2
modifications: N-terminus assumed
SMILES: CC(C)C[C@H](NC(=O)[C@H](Cc1ccc(O)cc1)NC(=O)[C@H](CCCCN)NC(=O)[C@H](CO)NC(=O)[C@H](Cc1ccc(O)cc1)NC(=O)[C@H](CC(=O)O)NC(=O)[C@H](CO)NC(=O)[C@@H](NC(=O)[C@H](Cc1ccccc1)NC(=O)[C@@H](NC(=O)CNC(=O)[C@H](CCC(N)=O)NC(=O)[C@H](CO)NC(=O)[C@@H](N)Cc1c[nH]cn1)[C@@H](C)O)[C@@H](C)O)C(=O)N[C@@H](CC(=O)O)C(=O)N[C@@H](CO)C(=O)N[C@@H](CCCCN)C(=O)N[C@@H](CCCNC(=N)N)C(=O)N[C@@H](C)C(=O)N[C@@H](CCC(N)=O)C(=O)N[C@@H](CCC(=O)O)C(=O)N[C@@H](Cc1ccccc1)C(=O)N[C@H](C(=O)N[C@@H](CCCCNC(=O)COCCOCCNC(=O)COCCOCCNC(=O)CC[C@H](NC(=O)CCCCCCCCCCCCCCCCC(=O)O)C(=O)O)C(=O)N[C@@H](Cc1c[nH]c2ccccc12)C(=O)N[C@@H](CC(C)C)C(=O)N[C@@H](CC(C)C)C(=O)N[C@@H](CO)C(=O)N[C@H](C(N)=O)[C@@H](C)O)C(C)C
Assay (I) Glucagon [EC50]: 0.007 nM

B10: N^ε24-([2-[2-[2-[[2-[2-[2-[[(4S)-5-hydroxy-4-[(18-hydroxy-18-oxooctadecanoyl)amino]-5-oxopentanoyl]amino]ethoxy]ethoxy]acetyl]amino]ethoxy]ethoxy]acetyl]) … (peptide)
peptide: HSQGTFTSDYSKYLDSRQAQEFVK([AEEA-AEEA-γGlu-C18 diacid])WLLNT
Assay (I) Glucagon [EC50]: 0.15 nM

B12: N^ε27 ([2-[2-[2-[[2-[2-[2-[[(4S)-5-hydroxy-4-[(18-hydroxy-18-oxooctadecanoyl)amino]-5-oxopentanoyl]amino]ethoxy]ethoxy]acetyl]amino]ethoxy]ethoxy]acetyl]) … (peptide)
peptide: HSQGTFTSDYSKYLDSKRAQEFVQWLK([AEEA-AEEA-γGlu-C18 diacid])NT-NH2
modifications: N-terminus assumed
SMILES: CC(C)C[C@H](NC(=O)[C@H](Cc1ccc(O)cc1)NC(=O)[C@H](CCCCN)NC(=O)[C@H](CO)NC(=O)[C@H](Cc1ccc(O)cc1)NC(=O)[C@H](CC(=O)O)NC(=O)[C@H](CO)NC(=O)[C@@H](NC(=O)[C@H](Cc1ccccc1)NC(=O)[C@@H](NC(=O)CNC(=O)[C@H](CCC(N)=O)NC(=O)[C@H](CO)NC(=O)[C@@H](N)Cc1c[nH]cn1)[C@@H](C)O)[C@@H](C)O)C(=O)N[C@@H](CC(=O)O)C(=O)N[C@@H](CO)C(=O)N[C@@H](CCCCN)C(=O)N[C@@H](CCCNC(=N)N)C(=O)N[C@@H](C)C(=O)N[C@@H](CCC(N)=O)C(=O)N[C@@H](CCC(=O)O)C(=O)N[C@@H](Cc1ccccc1)C(=O)N[C@H](C(=O)N[C@@H](CCC(N)=O)C(=O)N[C@@H](Cc1c[nH]c2ccccc12)C(=O)N[C@@H](CC(C)C)C(=O)N[C@@H](CCCCNC(=O)COCCOCCNC(=O)COCCOCCNC(=O)CC[C@H](NC(=O)CCCCCCCCCCCCCCCCC(=O)O)C(=O)O)C(=O)N[C@@H](CC(N)=O)C(=O)N[C@H](C(N)=O)[C@@H](C)O)C(C)C
Assay (I) Glucagon [EC50]: 0.007 nM

B13: N^ε28 ([2-[2-[2-[[2-[2-[2-[[(4S)-5-hydroxy-4-[(18-hydroxy-18-oxooctadecanoyl)amino]-5-oxopentanoyl]amino]ethoxy]ethoxy]acetyl]amino]ethoxy]ethoxy]acetyl]) … (peptide)
peptide: HSQGTFTSDYSKYLDSKRAQEFVQWLLK([AEEA-AEEA-γGlu-C18 diacid])T-NH2
modifications: N-terminus assumed
SMILES: CC(C)C[C@H](NC(=O)[C@H](Cc1ccc(O)cc1)NC(=O)[C@H](CCCCN)NC(=O)[C@H](CO)NC(=O)[C@H](Cc1ccc(O)cc1)NC(=O)[C@H](CC(=O)O)NC(=O)[C@H](CO)NC(=O)[C@@H](NC(=O)[C@H](Cc1ccccc1)NC(=O)[C@@H](NC(=O)CNC(=O)[C@H](CCC(N)=O)NC(=O)[C@H](CO)NC(=O)[C@@H](N)Cc1c[nH]cn1)[C@@H](C)O)[C@@H](C)O)C(=O)N[C@@H](CC(=O)O)C(=O)N[C@@H](CO)C(=O)N[C@@H](CCCCN)C(=O)N[C@@H](CCCNC(=N)N)C(=O)N[C@@H](C)C(=O)N[C@@H](CCC(N)=O)C(=O)N[C@@H](CCC(=O)O)C(=O)N[C@@H](Cc1ccccc1)C(=O)N[C@H](C(=O)N[C@@H](CCC(N)=O)C(=O)N[C@@H](Cc1c[nH]c2ccccc12)C(=O)N[C@@H](CC(C)C)C(=O)N[C@@H](CC(C)C)C(=O)N[C@@H](CCCCNC(=O)COCCOCCNC(=O)COCCOCCNC(=O)CC[C@H](NC(=O)CCCCCCCCCCCCCCCCC(=O)O)C(=O)O)C(=O)N[C@H](C(N)=O)[C@@H](C)O)C(C)C
Assay (I) Glucagon [EC50]: 0.003 nM
